This is an account of results in article PMC3220268, “Phosphorylation of the Arp2 Subunit Relieves Auto-inhibitory Interactions for Arp2/3 Complex Activation” (PLoS Computational Biology, 2011).

The target of experiment [1] is recombinant Arp2/3 complex with Arp2 T237A, T238A, and Y202A mutations (UniProt P61158 1-418; P61160 1-394; O15143 1-372; O15144 1-300; O15145 1-178; P59998 …, T237A | T238A | Y202A). The experiment in a line: pull-down; GST-NWASP VCA covalently coupled to Activated CH-sepharose 4B; beads added to Arp2/3 complex, room temperature, 30 min; beads spun at 700 x g, Coomassie-stained gels quantified and fitted. The following applies: both partners purified.

Experiment [2] deals with recombinant Arp2/3 complex with ARPC4 R105A and R106A mutations (UniProt P61158 1-418; P61160 1-394; O15143 1-372; O15144 1-300; O15145 1-178; P59998 …, R105A | R106A). The experiment is described as above. As to conditions: both partners purified.

B1: GST-NWASP VCA (domain or fragment)
chain: PSDGDHQVPTTAGNKAALLDQIREGAQLKKVEQNSRPVSCSGRDALLDQIRQGIQLKSVADGQESTPPTPAPTSGIVGALMEVMQKRSKAIHSSDEDEDEDDEEDFEDDDEWED
Regarding B1, the Kd – broadly, the constant that tells how readily two partners part at equilibrium – in experiment [1] is 500 nM; in experiment [2], 60 nM.
